The source of these data is US20240100174A1, “PROTEIN-PEG INTERACTIONS THAT REDIRECT THE THERMAL UNFOLDING PATHWAY OF PEGYLATED HUMAN GALECTIN-3C” (UNIVERSITY OF FLORIDA RESEARCH FOUNDATION, INCORPORATED, priority 2022, published 2024).

Data set [1] in a line: Equilibrium binding of lactose, intrinsic tryptophan fluorescence. The conditions noted are these: ligand lactose; average ± standard deviation of 3 replicated experiments; PBS; read-out: Kd (equilibrium binding constant). As to the method:
Equilibrium binding data were recorded using a protocol adapted from a previous procedure from Restuccia, et al (38). Intrinsic tryptophan fluorescence was monitored using a Cary Eclipse™ Fluorescence Spectrophotometer (Agilent) operating with Cary Eclipse™ WinFLR software version 1.2 in ‘Scan Mode’. The instrument method parameters were as follows: excitation wavelength was 280 nm, the acquisition range was from 290 nm to 440 nm and the photomultiplier tube sensitivity was set to ‘medium’. Samples were prepared at final concentrations of 1 μM for Gal3C[T243C] or 5 μM Gal3C[T243C]-PEG in 800 ∥L, in PBS for each titration. Samples were pipetted into 0.7×0.7 cm quartz cuvettes with a micro stir bar. Each new experiment was first zeroed against PBS to remove the small background signal from the buffer. […]
The binding affinity and specificity of Gal3C[T243C]-PEG was compared with Gal3C[T243C] and Gal3C (see FIG. 1C, FIG. 9 and FIG. 10) via an inherent tryptophan fluorescence assay optimized to ensure equilibrium binding conditions. Binding of lactose or LacNac quenches the fluorescence of W181, located adjacent to the bound sugar in the crystal structure of Gal3C, thus permitting direct measurement of ligand Kd values.

Data set [2] can be described thus: Variable temperature circular dichroism (CD) thermal unfolding. The data set is classed as physicochemical. The following applies: for fitted melting temperature (Tm): CD at 220 nm. The method, then: CD spectroscopic data were recorded with an Applied Photophysics™ Chirascan spectrophotometer equipped with a Quantum Northwestern Peltier temperature control device and operating with Chirascan v4.7.0 and Pro-Data™ Viewer software. Samples were prepared in PBS at final concentrations of 10 μM. All samples were contained in 2 mm tapered quartz cuvettes, and a temperature probe was inserted through the cuvette cap to monitor the sample temperature in real time. The following parameters were used for constant temperature experiments: CD signal measured in millidegrees, bandwidth of 1.0 nm, wavelength scan from 200-280 nm, step size of 2.0 nm. Spectra were background subtracted against the sample buffer. For thermal unfolding experiments, a linear thermal ramp was applied from 30° C. to 90° C. at 1° C. per minute. All spectra were measured in triplicate, and data were normalized to account for slight differences in protein concentration.
To calculate melting temperatures of unconjugated Gal3C, Gal3C[T243C], and Gal3C[T243C] variants containing lysine replacements, the normalized data were fit to a Boltzmann sigmoidal function in Origin v8.5. For the data fitting, no parameters were fixed, and the ‘x’ parameter defined as the center of the data was interpreted as the melting temperature (Tm). Variable temperature CD data of PEGylated Gal3C[T243C] and Gal3C[T243C] variants were fit with a sum of two Boltzmann sigmoidal functions, as shown below:
where ‘A1’, ‘A2’, and ‘A3’ represent three plateaus of the CD signal, ‘dx1’ and ‘dx2’ are the change in x between the plateaus for each melting transition, and ‘x1’ and ‘x2’ are the two Tm values extracted by the fit for the first and second unfolding transitions, respectively. Because the third plateau, A3, occurred at temperatures higher than the experimentally accessible range, this value was estimated. A single wavelength for plotting on the y-axis was selected by calculating the wavelength of greatest CD signal change for each PEGylated construct.
To record a CD spectrum of Gal3C[T243C] with free PEG, a stock solution of methoxy-PEG (mPEG) in 1×PBS was added immediately before the experiment to a solution containing protein (20 μM, 1 ×PBS) to a final concentration of 22 μM mPEG. All thermal melt parameters were the same as listed in the above described experiments.
CD spectroscopic data were recorded with an Applied Photophysics Chirascan spectrophotometer equipped with a Quantum Northwestern Peltier temperature control device and operating with Chirascan v4.7.0 and Pro-Data Viewer software, following procedures used in our previous study.^4 Spectra were background subtracted against the sample buffer. For thermal unfolding experiments, a linear thermal ramp was applied from 30° C. to 90° C. at 1° C. per minute with samples concentrated to 10 μM in PBS. All spectra were measured in triplicate, and data were normalized to account for slight differences in protein concentration.
Full wavelength (200-280 nm) CD spectra for each construct (FIG. 43) were used to calculate a wavelength of greatest change (222 or 224 nm) to create single wavelength CD vs. temperature plots (FIG. 30H-J and FIG. 31F-G). The single wavelength CD signal vs. temperature plot of Gal3C[T243C] used data acquired at 220 nm, which was the wavelength of greatest change for the unmodified protein. To calculate melting temperatures, the normalized data were fit to a Boltzmann sigmoidal function in Origin v8.5. For the data fitting, no parameters were fixed, and the ‘x’ parameter defined as the center of the data was interpreted as the melting temperature (Tm).
On the technique in general: Circular dichroism is widely used to follow secondary structure.

Where “and” joins values, the source holds several entries; their conditions need not be identical. Identical values can stand only once.

B1: Gal3C[T243C]: Gal3C variant with a single extrinsic cysteine at position 243; SEQ ID NO: 11 (protein)
chain: MAGPLIVPYNLPLPGGVVPRMLITILGTVKPNANRIALDFQRGNDVAFHFNPRFNENNRRVIVCNTKLDNNWGREERQSVFPFESGKPFKIQVLVEPDHFKVAVNDAHLLQYNHRVKKLNEISKLGISGDIDLTSASYCMILEHHHHHH
For orientation: Kd means the constant that tells how readily two partners part at equilibrium. Consider B1, for which the dissociation constant Kd in data set [1] came out at 413 ± 102 µM. The figures for the “fitted melting temperature (Tm)” value in data set [2] (20 μM protein in the absence of free PEG-OH) and in data set [2] (20 μM protein in the presence of 22 μM free PEG-OH) were 57.5 °C and 57.7 °C, respectively. The “Tm1 ± StDev” value in data set [2] (normalized CD at 220 nm vs. temperature, 3 replicates averaged, ramp 30-90° C. at 1° C. per minute) is 58.1 °C and 58.1 ± 0.5 °C. The “thermal unfolding behaviour / formation of unfolding intermediate” value in data set [2] (result in words, for polymer conjugates the selected SEC fractions) is reported as “single cooperative unfolding transition”. The “Tm / Tm1” value in data set [2] (values of Summary of Results, Tm for unconjugated protein, Tm1 for PEG conjugate) amounted to 58.0 °C.
